Numbering of substitutions follows the chain as printed.
B1: antibody 3091 (antibody, V domains shown)
VH: QMQLVQSGPEVKKPGTSVKVSCKASGFTFSSSAVQWVRQARGQGLEWIGWIVVGSGNANYAQKLQERVSITRDMSTSTAYMELSSLRPEDTAVYYCAAPHCSRTICHDGFDMWGQGTMVTVSS
VL: EIVLTQSPGTLSLSPGERATLSCRASQSVRSSYLAWYQQKPGQAPRLLMFVASSRATGIPDRFSGSGSGTDFTLTISRLEPEDFAVYYCQQYDTSPWTFGQGTKVEIK
B2: antibody 2564 (antibody, V domains shown)
VH: QVQLVQSGAEVKKPGSSVRVSCKASGGTFISYTFNWVRQAPGQGLEWMGRIIPIFGIVNYAQKFQGRVTIAADKSTSTAYMELSSLRSEDTAMYYCATATVDYDSGEEQSSFDPWGQGTLVTVSS
VL: EIVLTQSPGTLSLSPGERATLSCRASQSVSSSYLAWYQQKAGQTPRLLIYAASSRATGVPDRFSGSGSGTDFTLTISRLEAEDFAVYYCQQSWTFGQGTKVEIK
B3: antibody 2892 (antibody, V domains shown)
VH: QVQLVQSGAEVKKPGSSVKVSCKASGDAFISYAISWVRQAPGQGLEWMGGIIPIFGTANYAQKFQGRVTISADESTSTAYMELSRLRSEDTAVYYCARGGPEPYGSGSGYTPRYNWFDPWGQGTLVTVSS
VL: QSALTQPRSVSGSPGQSVTISCTGTSSDVGGYNYVSWYQQHPGKAPKFMIYDVNRRPSGVPDRFSGSKSGNTASLTISGLQAEDEADYYCCSYAGTYTWVFGGGTKLTVL
B4: antibody 4441 (antibody, V domains shown)
VH: EVQLVESGGGLVQPGRSLRLSCAASGLTFEDYAMHWVRQPPGKGLEWVSGVSWNSGTIGYADSVKGRFTISRDNAKNSLYLHMRSLGAEDTAMYYCAKDMGGRFSFFSLENDAFDIWGQGTMVIVSS
VL: SYELTQPPSVSVSPGQTARITCSGDALPKQSTYWYQQKPGQAPVLVIYKDIERPSGIPERFSGSSSGTTVTLTISGVQAEDEADYYCQSADSSDTYVFGTGTKVTVL
B5: antibody 4042 (antibody, V domains shown)
VH: QITLKESGPTLVKPTQTLTLTCTFSGFSLSSGGVGVGWIRQPPGKALEWLALIYWDDDKRYRPSLKSRLTITRDTSTNQVVLTMTNMDPVDTATYFCARHQIATVFDHWGQGTLVTVSS
VL: QSALTQPASVSGSPGQSITISCTGTSSDVGGYNYVSWYQQHPGKAPKLMIYEVSNRPSGVSSRFSGSKSGNTASLTISGLQAEDEADYYCSSYTRSSPLVAFGGGTKVTVL
B6: antibody 3995 (antibody, V domains shown)
VH: EVQLVQSGAEVKKPGSSVKVSCKASGGTFSMHTIRWVRQAPGQGLEWMGRIIPMLGIVNYAQKFQGRVTISADKSTSTAYMELSSLTSEDTAMYYCAKGSHDVFDIWGQGTMVTVSS
VL: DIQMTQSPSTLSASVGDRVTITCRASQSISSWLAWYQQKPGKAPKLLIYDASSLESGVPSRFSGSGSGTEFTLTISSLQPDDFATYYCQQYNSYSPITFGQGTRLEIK
B7: antibody 3086 (antibody, V domains shown)
VH: QVQLQESGPGLVKPSETLSLTCTVSGGSISGHYWSWIRQPPGKGLEWIGYIYYSGSTNYNPSLKSRVTISVDTSVNQFSLKLSSVTAADTAVYYCARQEARDAVGNYFFDSWGQGTLVTVSS
VL: QSALTQPASVSGSPGQSITISCSGTSSDIGSYDLVSWYQQHPGKAPKLLIYDVTKRPSGVSHRFSGSKSGNTASLTISGLQGEDEADYYCCSYVHFSTWVFGGGTKLTVL
B8: antibody 2794 (antibody, V domains shown)
VH: QVQLVQSGAEVKKPGSSLKVSCKASGGTFNNFAISWVRQAPGQGPEWMGRINPILSAAKYAQKFQGRLTITADKSTTTAYMELSSLRSEDTAVYYCAPTGTGESWWFDPWGQGTLVTVSS
VL: QSVLTQPPSASGTPGQRVTISCSGSSSNIGTNYVYWYQQLPGTAPKVLIYGNNQRPSGVPDRFSGSKSGSSASLAISGLRSEDEADYYCAAWDDSLSGPVFGGGTKLTVL
B9: antibody 980 (antibody, V domains shown)
VH: QVQLVESGGGVVQPGRSLRLSCAASGFTFSRYGMHWVRQAPGKGLEWVALISSGGSNKYYADSVKGRFTISRDNSKNTLYLEMNSLRAEDTAVYYCAKDAIYDYIWGAYRENWFDPWGQGTLVTVSS
VL: DIQMTQSPSSLSASVGDRVTITCRASQSISNYLNWYQQKPGKAPNLLIYAASSLQSGVPSRFSGSGSGTDFTLTISSLQPEDFATYYCQQTSSPPLTFGQGTKVEIK
B10: antibody 2024 (antibody, V domains shown)
VH: QVQLVQSGAEVKKPGASVKVSCKVSGYTLIELSMHWVRQAPGKGLEWMGGFDPEEGETIYAQKFQGRVTMTEDTSTDTAYMELSSLRSEDTAVYYCTTSPPVGATGAWFDPWGQGTLVTVSA
VL: SYVLTQPPSVSVAPGKTARITCGGNNIGSKSVHWYQQKPGQAPVLVVYDDSDRPSGIPERFSGSNSGNTATLTISGLQAEDEADYYCSSYTSSSTVVFGGGTKLTVL
B11: antibody 1238 (antibody, V domains shown)
VH: QVQLVQSGSELKKPGASVKVSCKASGYTFTNYGMNWVRQAPGQGLEWMGWINTNTGNPTNAQGFTGRFVFSLDTSVSTAYLQINSLKGEDTAVYYCARVADTGEMDVWGQGTTVTVSS
VL: SYELTQPPSVSVSPGQTARITCSGDALPKQYAYWYQQKPGQAPVLVIYKDSERPSGIPERFSGSSSGTTVTLTISGVQAEDEADYYCQSADSSGSYNWVFGGGTKLTIL
B12: antibody 2019 (antibody, V domains shown)
VH: QVQLVESGGGVVQPGGSLSLSCAASGLSFSSYGMHWVRQAPGKGLEWVAFIRYDVSNKYYADSVKGRFTISRDNSKNTLYLQMNSLRVEDTAVYYCATWAPLDDGMDVWGQGTTVTVSS
VL: B11 VL with S51T, A90G, S95T, Y96F, N97Y, W98V, I108V
B13: antibody 1871 (antibody, V domains shown)
VH: EVQLVESGGGLVKPGGSLRLSCVASGFSFSIYSMNWVRQAPGKGLEWVSYISSSSSYKYYADSVKGRFSVSRDNAKNSLYLQLNGLRAEDTAVYYCARDGYCPKGVCTYYGMDVWGQGTTVTVSA
VL: EIVMTQSPATLSVSPGERVTLSCRASQSVRSRLAWFQQKPGQAPRLLIYDASIRATGIPARFSGSGSGTEFTLIISSLQSEDFAVYYCQQYDNWPPAYTFGQGTKLEIK
B14: antibody 1872 (antibody, V domains shown)
VH: B13 VH with V23A, I31L, S33T, K58R, S78A, L83M, K104R
VL: B13 VL with V19A, R30G, F36Y, S52T, E70D, I74T, S77G, Q90R, D92N

Molecular target: T1, Receptor-binding domain (RBD) of the SARS-CoV-2 spike protein, WA01/2020 strain (SARS-CoV-2, WA01/2020 strain, UniProt P0DTC2 319-541)
Assay: ELISA, antibody blocks RBD binding to human ACE2

| Binder | IC50 |
| --- | --- |
| B1 | 560 pM |
| B2 | 776 pM |
| B3 | 762 pM |
| B4 | 1020 pM |
| B5 | 1090 pM |
| B6 | 692 pM |
| B7 | 562 pM |
| B8 | 137 pM |
| B9 | 860 pM |

Molecular target: T1, Receptor-binding domain (RBD) of the …
Assay: ELISA, antibody at 0.1 ug/mL

| Binder | binding result |
| --- | --- |
| B10 | no binding (tested: 0.1 ug/mL) |
| B11 | no binding (tested: 0.1 ug/mL) |
| B12 | no binding (tested: 0.1 ug/mL) |

Molecular target: T1, Receptor-binding domain (RBD) of the …
Assay: dose-response ELISA on coated antigen

| Binder | EC50 |
| --- | --- |
| B1 | 30 pM |
| B2 | 23 pM |
| B3 | 89 pM |
| B4 | 50 pM |
| B5 | 21 pM |
| B6 | 21 pM |
| B7 | 30 pM |
| B8 | 22 pM |
| B9 | 23 pM |

Molecular target: T2, SARS-CoV-2 spike protein on live virus, strain USA-WA1/2020 (SARS-CoV-2, WA01/2020 strain, UniProt P0DTC2 14-1273)
Assay: cell-based or functional assay

| Binder | Live Neut, WA1/2020 IC50 (pM) |
| --- | --- |
| B10 | 95 pM |
| B1 | 8 pM |
| B2 | 7 pM |
| B3 | 10 pM |
| B4 | 85 pM |
| B5 | 15 pM |
| B6 | 51 pM |
| B11 | 400 pM |
| B12 | 107 pM |
| B7 | 7 pM |
| B8 | 17 pM |
| B9 | 25 pM |

Molecular target: SARS-CoV-2 spike protein on live virus, B1.351 (beta variant) (SARS-CoV-2, B1.351)
Assay: cell-based or functional assay

| Binder | Live Neut, B1.351 IC50 (pM) |
| --- | --- |
| B1 | 172 pM |
| B2 | 121 pM |
| B3 | 403 pM |
| B5 | 140 pM |
| B6 | 135 pM |
| B7 | 210 pM |
| B9 | 83 pM |

Molecular target: T1, Receptor-binding domain (RBD) of the …
Assay: ELISA screening, antibody concentration not given

| Binder | binding result |
| --- | --- |
| B13 | no binding (tested: not printed) |
| B14 | no binding (tested: not printed) |

Molecular target: T1, Receptor-binding domain (RBD) of the …
Assay: SPR (Biacore 8K), antigen immobilized, antibody injected

| Binder | Kd |
| --- | --- |
| B1 | 4 pM |
| B2 | 12 pM |
| B3 | 5 pM |
| B4 | 22 pM |
| B5 | 36 pM |
| B6 | 57 pM |
| B7 | 242 pM |
| B8 | 232 pM |
| B9 | 870 pM |

Molecular target: T2, SARS-CoV-2 spike protein on live virus, …
Assay: cell-based or functional assay
Remark: another data set of the same source

| Binder | IC50, live virus micro-neutralization WA1/2020 |
| --- | --- |
| B1 | 55 pM |
| B2 | 22.6 pM |
| B3 | 82 pM |
| B4 | 58 pM |
| B5 | 39 pM |
| B6 | 41 pM |
| B7 | 62 pM |
| B8 | 55 pM |
| B9 | 8.2 pM |

Molecular target: SARS-CoV-2 spike protein, B1.1.7 (alpha variant), borne on lentiviral pseudovirus (SARS-CoV-2, B1.1.7)
Assay: cell-based or functional assay

| Binder | Pseudo Neut, B1.1.7 IC50 (pM) |
| --- | --- |
| B1 | ~13 pM |
| B2 | 33 pM |
| B3 | ~13 pM |
| B4 | ~13 pM |
| B5 | 200 pM |
| B13 | 110 pM |
| B14 | 130 pM |
| B6 | 667 pM |
| B7 | 71 pM |
| B8 | 148 pM |
| B9 | 1670 pM |

Molecular target: SARS-CoV-2 spike protein, B1.351 (beta variant), borne on lentiviral pseudovirus (SARS-CoV-2, B1.351)
Assay: cell-based or functional assay

| Binder | Pseudo Neut, B1.351 IC50 (pM) |
| --- | --- |
| B1 | 78 pM |
| B2 | 196 pM |
| B3 | 125 pM |
| B4 | 2320 pM |
| B5 | 948 pM |
| B13 | 208 pM |
| B14 | 75 pM |
| B6 | 2830 pM |
| B7 | 115 pM |
| B8 | 428 pM |
| B9 | 1740 pM |
